Substrate in this series: CC(O)C(=O)O
Put plainly: cells, lysate or membranes. The settings on record: labelled compound, KH2PO4 pH 5.0, room temperature, 10 s uptake, strain printed GLS in table, GS in text and methods, host background uptake not subtracted.

B1: PAS (putative lactate transporter of P. pastoris) (Komagataella phaffii GS115) (protein)
chain: MSHSIHSAAHKSVMTDIEKQHDRIHPHDHPVTPLEKPDLSAKSIKHYFATRLSTLVPKAEDFKDKRYIFNPFMVLRELTPKNWNFFMCGFAAWTWDAVDFFSVSLNVTNIAKDLNVTTKDVTWGLTLVLMLRSVGAISFGLWADRKGRKWPFIFNMILLIVLQIGLGFVNTYKQFLGVRAVFGIAMGAVFGNASSLALDDCPPRAKGIVSGIFQQGYAFGYLLVVVFQRAITDNASKSWRALFWFSAGPPVLIILWRLVLPETDAFIAQQNLRMETSDGQTASQQFVKQGKDALRVYWLMLIYMIIMMAAFNFSSHSSQDLYPTLLTVQYEFGKDRSTVTNVVANLGAIVGGIFWGHMSNFIGRRLAVLLCCIVGGAFIYPWAFINGSGINAGAFFLQFAVQGGWGVCPVHLAEMSPPHFRAFVTGTTYQLGNLASSGSSTILADIGERFPIYDENGVRKEGVYDYAKVMAIFMGAVFAFLFIVMLLGPERRGASNLDDLQDYIDDWEQKDLDNKKGIETEFIEDVQLMEAVSNEDLSEKGNEKVEAFEGNK
Consider B1, for which the Km is given as 157.40 ± 25.46 µM and the maximum rate (Vmax) worked out at 452 µmol/min/mg.

(Values after PMC5025603.)
